# Results reported in patent US20170097353A1 (University of California, published 2017).
# Ends that are not written are not given here. * marks the point of attachment. Butanoyl(4-N3) = [N-]=[N+]=NCCCC(=O)*
# Molecular target: T1, Prostate Specific Membrane Antigen (PSMA) on the surface of LNCaP / LNCaP CSS prostate cancer cells (human, UniProt Q04609 1-750, glycoprotein)
# T1 construct: whole, on cells; Endogenous PSMA on LNCaP cells (derived from lymph node adenocarcinoma of the human prostate); Cells were glutaraldehyde-fixed on Maxisorp plates in the cell-based phage ELISA, or in suspension in the sandwich ELISA; also called cell surface PSMA
# Test: cell-based phage ELISA on LNCaP cells (FIG. 5A)
# T1 sequence (Q04609 whole entry): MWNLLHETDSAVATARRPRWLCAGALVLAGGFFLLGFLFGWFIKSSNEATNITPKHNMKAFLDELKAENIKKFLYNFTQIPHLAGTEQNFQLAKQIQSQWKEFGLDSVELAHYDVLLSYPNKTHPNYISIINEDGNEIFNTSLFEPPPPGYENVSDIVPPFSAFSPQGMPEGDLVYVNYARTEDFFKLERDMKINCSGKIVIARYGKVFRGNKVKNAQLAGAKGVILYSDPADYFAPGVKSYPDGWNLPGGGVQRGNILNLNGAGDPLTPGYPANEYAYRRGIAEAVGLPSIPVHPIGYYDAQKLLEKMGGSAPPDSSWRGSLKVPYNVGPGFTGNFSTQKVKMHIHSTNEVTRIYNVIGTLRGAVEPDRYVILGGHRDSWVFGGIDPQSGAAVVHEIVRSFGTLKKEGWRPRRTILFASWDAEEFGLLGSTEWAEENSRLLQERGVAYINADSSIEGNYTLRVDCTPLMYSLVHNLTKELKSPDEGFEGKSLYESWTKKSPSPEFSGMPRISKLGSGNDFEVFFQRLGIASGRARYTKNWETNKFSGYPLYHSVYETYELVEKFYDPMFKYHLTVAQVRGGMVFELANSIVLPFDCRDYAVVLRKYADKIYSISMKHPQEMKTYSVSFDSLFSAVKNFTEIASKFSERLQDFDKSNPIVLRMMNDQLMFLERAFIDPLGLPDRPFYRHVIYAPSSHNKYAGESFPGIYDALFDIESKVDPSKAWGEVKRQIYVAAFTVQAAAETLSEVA
row,Binder,binding result
1,"{pentynoic acid-15‑azido‑4,7,10,13‑tetraoxapentadecanoic acid}-SECVEVFQNSCDW-NH2 (not fully specified; cysteine pairing not given here; also: pentynoic acid clicked to azide (triazole), Mal-PEG100-NH2 HBTU-coupled non-specifically, Multivalent display on M13 phage wrapped with K14-Cys)",binds
2,"{pentynoic acid-Butanoyl(4-N3)}-SECVEVFQNSCDW-NH2 (not fully specified; cysteine pairing not given here; also: Mal-PEG100 coupled non-specifically (N-terminal or side-chain carboxylate), Multivalent display on M13 phage wrapped with K14-Cys; also called PEGylated ligand 2; peptide-2)",binds
3,"{Mal‑PEG100‑alkyne (triazole)-PEG4 linker}-SECVEVFQNSCDW-NH2 (not fully specified; cysteine pairing not given here, Multivalent display on M13 phage wrapped with K14-Cys)",binds
4,"SECVEVFQNSCDW-NH2 (not fully specified (N-terminus); cysteine pairing not given here; also: Mal-PEG100-alkyne clicked (triazole) to azide at N-terminus, Multivalent display on M13 phage wrapped with K14-Cys)",binds
